Marks after values point to notes of the source that are not given here.
Key:
human PCSK9 = target: T1, human PCSK9 (Homo sapiens, UniProt Q8NBP7, E620G/G670E/V474I); experiment: BIAcore solution equilibrium binding assay; details: hPCSK9, solution equilibrium
T1 construct: made in house
Text: Flow cell 3 was used as a background control. […] Although cPCSK9 has lower protein concentration observed from KinExA assay and SDS-gel, its concentration was not adjusted here since the concentration of cPCSK9 was not used for calculation of KD. […] FIG. 5B depicts the results from the solution equilibrium assay at three different hPCSK9 concentrations for hPCSK9. FIG. 5C depicts a similar set of results for mPCSK9. FIG. 5D depicts the results from the above biacore capture assay.

PCSK9 [1] = target: T2, PCSK9 (Homo sapiens, UniProt Q8NBP7); experiment: Phase 1 ascending single dose study in healthy subjects; type: in vivo
T2 construct: endogenous in cells; host or cells: human subjects, in vivo
T2 sequence (Q8NBP7 153-692): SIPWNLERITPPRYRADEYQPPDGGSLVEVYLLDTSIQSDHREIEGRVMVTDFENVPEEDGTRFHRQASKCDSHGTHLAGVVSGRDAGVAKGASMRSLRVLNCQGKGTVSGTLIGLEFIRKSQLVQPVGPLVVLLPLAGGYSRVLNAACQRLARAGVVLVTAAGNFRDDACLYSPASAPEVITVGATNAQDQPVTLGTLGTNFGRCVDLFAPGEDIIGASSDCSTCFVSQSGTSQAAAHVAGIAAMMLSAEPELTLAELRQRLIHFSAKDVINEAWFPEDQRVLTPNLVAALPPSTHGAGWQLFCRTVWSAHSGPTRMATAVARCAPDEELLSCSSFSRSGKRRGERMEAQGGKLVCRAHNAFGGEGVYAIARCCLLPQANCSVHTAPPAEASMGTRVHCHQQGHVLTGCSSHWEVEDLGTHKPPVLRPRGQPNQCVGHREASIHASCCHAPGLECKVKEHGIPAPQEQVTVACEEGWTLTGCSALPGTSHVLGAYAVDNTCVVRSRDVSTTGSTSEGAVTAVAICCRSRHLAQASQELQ

PCSK9 [2] = target: T2, PCSK9; experiment: 12 week study in heterozygous familial hypercholesterolemia (Example 22); type: in vivo; details: HeFH, preliminary
Method: This study is a double-blind, randomized, stratified, placebo-controlled clinical trial evaluating the safety, tolerability, and efficacy of monocloncal antibody 21B12 in subjects having a diagnosis of HeFH. A total enrollment of 150 subjects is planned. […] Randomization will be stratified by screening LDL-C level (<130 mg/dL [3.4 mmol/L] vs ≥130 mg/dL) and ezetimibe use at baseline (yes vs no). Randomization should occur within 5-10 days of the screening LDL-C evaluation used to determine eligibility. Monoclonal antibody, 21B12, and placebo will be blinded. Study visits are at weeks 2, 4, 8, and 12. […] The end-of-study (EOS) visit and the last evaluation of lipids is at week 12.
Males and females, ≥18 to ≤75 years of age, and with a diagnosis of heterozygous familial hypercholesterolemia by the diagnostic criteria of the Simon Broome Register Group (SBRG), are eligible for this study. For enrollment, subjects must be on an approved statin, with stable dose(s) for all allowed (eg, ezetimibe, bile-acid sequestering resin, stanols, or regulatory-approved and marketed niacin (eg, Niaspan or Niacor)) lipid-regulating drugs for at least
4 weeks before LDL-C screening and, in the opinion of the investigator, not requiring uptitration. Fasting LDL-C must be ≥100 mg/dL (2.6 mmol/L) and fasting triglycerides ≤400 mg/dL (4.5 mmol/L) by central laboratory at screening.

PCSK9 [3] = target: T2, PCSK9; experiment: 12 week monotherapy dose-ranging study, Framingham risk 10% or less (Example 24); type: in vivo; details: for Treatment difference vs ezetimibe in LDL-C percent change, week 12 / Treatment difference vs placebo in LDL-C percent change, week 12: P < 0.001; for mean percent reduction from baseline in LDL-C: monotherapy, preliminary
Method: Ezetimibe was not blinded. The end-of-study visit and the last estimation of lipids was at week 12 for subjects on Q4W IP schedule or on ezetimibe and week 14 for subjects on Q2W IP schedule.
Males and females, ≥18 to ≤75 years of age, were eligible for this study. Fasting LDL-C was ≥100 mg/dL (2.6 mmol/L) and ≤190 mg/dL (4.9 mmol/L) and fasting triglycerides ≤400 mg/dL (4.5 mmol/L) by central laboratory at screening.
The primary endpoint was the percent change from baseline in LDL-C at week 12. Secondary endpoints included percent changes in apolipoprotein B (ApoB), lipoprotein (a) (Lp(a)), and in the ratio of total cholesterol to high-density lipoprotein (HDL)-C. Tolerability and safety were also evaluated.

[4] = 350 mg Q4W SC, end of dosing interval

T1 sequence (Q8NBP7 153-692 V474I/E620G/G670E): as the sequence (Q8NBP7 153-692) above, with V322I, E468G, G518E counted along it

- Kd (human PCSK9): 15 pM
- LDL-C nadir observed after dosing (PCSK9 [1]; single dose, healthy subjects): ≤ 2 weeks
- suppression of PCSK9 (PCSK9 [1]; single doses ≥70 mg SC): Complete suppression of PCSK9
- LS mean percent increase from baseline in HDL-C (PCSK9 [2]; [4]): 15.39%
- LS mean percent reduction from baseline in LDL-C (PCSK9 [2]; [4]): 38.46%
- LS mean percent reduction from baseline in Lp(a) (PCSK9 [2]; [4]): 21.69%
- LS mean percent reduction from baseline in VLDL-C (PCSK9 [2]; [4]): 17.16%
- LS mean percent reduction from baseline in non-HDL cholesterol (PCSK9 [2]; [4]): 36.16%
- LS mean percent reduction from baseline in total cholesterol (PCSK9 [2]; [4]): 24.82%
- LS mean percent reduction from baseline in triglycerides (PCSK9 [2]; [4]): 17.24%
- LS mean percent increase from baseline in HDL-C (PCSK9 [2]; 420 mg Q4W SC): 6.77%
- LS mean percent reduction from baseline in LDL-C (PCSK9 [2]; 420 mg Q4W SC): 45.68%
- LS mean percent reduction from baseline in Lp(a) (PCSK9 [2]; 420 mg Q4W SC): 28.23%
- LS mean percent reduction from baseline in VLDL-C (PCSK9 [2]; 420 mg Q4W SC): 18.49%
- LS mean percent reduction from baseline in non-HDL cholesterol (PCSK9 [2]; 420 mg Q4W SC): 41.81%
- LS mean percent reduction from baseline in total cholesterol (PCSK9 [2]; 420 mg Q4W SC): 29.45%
- LS mean percent reduction from baseline in triglycerides (PCSK9 [2]; 420 mg Q4W SC): 4.56%
- Least squares mean percent change from baseline in LDL-C, week 12 (PCSK9 [3]; 70 mg Q2W SC (N = 45)): −40.98%
- Treatment difference vs ezetimibe in LDL-C percent change, week 12 (PCSK9 [3]; 70 mg Q2W SC): −26.73* %
- Treatment difference vs placebo in LDL-C percent change, week 12 (PCSK9 [3]; 70 mg Q2W SC): −37.27* %
- mean percent reduction from baseline in LDL-C (PCSK9 [3]; 70 mg Q2W SC, end of dosing interval): 41.21%
- Least squares mean percent change from baseline in LDL-C, week 12 (PCSK9 [3]; 105 mg Q2W SC (N = 46)): −43.87%
- Treatment difference vs ezetimibe in LDL-C percent change, week 12 (PCSK9 [3]; 105 mg Q2W SC): −29.62* %
- Treatment difference vs placebo in LDL-C percent change, week 12 (PCSK9 [3]; 105 mg Q2W SC): −40.17* %
- mean percent reduction from baseline in LDL-C (PCSK9 [3]; 105 mg Q2W SC, end of dosing interval): 45.44%
- Least squares mean percent change from baseline in LDL-C, week 12 (PCSK9 [3]; 140 mg Q2W SC (N = 45)): −50.93%
- Treatment difference vs ezetimibe in LDL-C percent change, week 12 (PCSK9 [3]; 140 mg Q2W SC): −36.68* %
- Treatment difference vs placebo in LDL-C percent change, week 12 (PCSK9 [3]; 140 mg Q2W SC): −47.23* %
- mean percent reduction from baseline in LDL-C (PCSK9 [3]; 140 mg Q2W SC): 51.56%
- Least squares mean percent change from baseline in LDL-C, week 12 (PCSK9 [3]; 280 mg Q4W SC (N = 45)): −39.02%
- Treatment difference vs ezetimibe in LDL-C percent change, week 12 (PCSK9 [3]; 280 mg Q4W SC): −25.17* %
- Treatment difference vs placebo in LDL-C percent change, week 12 (PCSK9 [3]; 280 mg Q4W SC): −43.57* %
- mean percent reduction from baseline in LDL-C (PCSK9 [3]; 280 mg Q4W SC, end of dosing interval): 37.53%
- Least squares mean percent change from baseline in LDL-C, week 12 (PCSK9 [3]; 350 mg Q4W SC (N = 45)): −43.20%
- Treatment difference vs ezetimibe in LDL-C percent change, week 12 (PCSK9 [3]; 350 mg Q4W SC): −29.34* %
- Treatment difference vs placebo in LDL-C percent change, week 12 (PCSK9 [3]; 350 mg Q4W SC): −47.74* %
- mean percent reduction from baseline in LDL-C (PCSK9 [3]; [4]): 42.16%
- Least squares mean percent change from baseline in LDL-C, week 12 (PCSK9 [3]; 420 mg Q4W SC (N = 45)): −47.98%
- Treatment difference vs ezetimibe in LDL-C percent change, week 12 (PCSK9 [3]; 420 mg Q4W SC): −34.14* %
- Treatment difference vs placebo in LDL-C percent change, week 12 (PCSK9 [3]; 420 mg Q4W SC): −52.53* %
- mean percent reduction from baseline in LDL-C (PCSK9 [3]; 420 mg Q4W SC): 47.52%
- change in LDL-C from baseline to week 12 greater than with placebo (PCSK9 [3]; final data): up to 72 mg/dL
- mean reduction from baseline for ApoB (PCSK9 [3]; final data): up to 44%
- mean reduction from baseline for Lp(a) (PCSK9 [3]; final data): up to 29%
- LDL-C reductions from baseline greater than ezetimibe (PCSK9 [3]; week 12, final data): 37%
- least-squares (LS) mean percent reduction from baseline in LDL-C (PCSK9 [3]; week 12, final data, across dose regimens): up to 51%
B1: 21B12: human anti-PCSK9 monoclonal antibody, light/heavy variable region SEQ ID NO 23/49 (antibody, listed as Homo sapiens, V domains shown)
VH: QVQLVQSGAEVKKPGASVKVSCKASGYTLTSYGISWVRQAPGQGLEWMGWVSFYNGNTNYAQKLQGRGTMTTDPSTSTAYMELRSLRSDDTAVYYCARGYGMDVWGQGTTVTVSS
VL: QSALTQPASVSGSPGQSITISCTGTSSDVGGYNSVSWYQQHPGKAPKLMIYEVSNRPSGVSNRFSGSKSGNTASLTISGLQAEDEADYYCNSYTSTSMVFGGGTKLTVL
- median AUC0-inf (PCSK9 [1]; 420 mg IV): 1550 µg·days/mL
- median maximum observed concentration (Cmax) (PCSK9 [1]; 420 mg IV): 139 µg/mL
- anti-21B12 antibodies in serum (PCSK9 [1]; all 42 subjects who received 21B12): negative for anti-21B12 antibodies
- subjects with treatment-emergent adverse events (PCSK9 [1]; any dose, 29 of 42 subjects): 69%
- effects on laboratory variables, ECGs, vital signs (PCSK9 [1]; human, in vivo): no trends indicative of clinically important effects
